Laboratory results reported in publication PMC12680535.

B1: NSUN2 (NOP2/Sun RNA methyltransferase family member 2), wild type, in PANC-1 cells [human (endogenous in PANC-1)] / STUB1 (STIP1 homology and U-box containing protein 1), in PANC-1 cells [human (endogenous in PANC-1)] (parent)
chain 1: MKGKEEKEGGARLGAGGGSPEKSPSAQELKEQGNRLFVGRKYPEAAACYGRAITRNPLVAVYYTNRALCYLKMQQHEQALADCRRALELDGQSVKAHFFLGQCQLEMESYDEAIANLQRAYSLAKEQRLNFGDDIPSALRIAKKKRWNSIEERRIHQESELHSYLSRLIAAERERELEECQRNHEGDEDDSHVRAQQACIEAKHDKYMADMDELFSQVDEKRKKRDIPDYLCGKISFELMREPCITPSGITYDRKDIEEHLQRVGHFDPVTRSPLTQEQLIPNLAMKEVIDAFISENGWVEDY
chain 2: MGRRSRGRRLQQQQRPEDAEDGAEGGGKRGEAGWEGGYPEIVKENKLFEHYYQELKIVPEGEWGQFMDALREPLPATLRITGYKSHAKEILHCLKNKYFKELEDLEVDGQKVEVPQPLSWYPEELAWHTNLSRKILRKSPHLEKFHQFLVSETESGNISRQEAVSMIPPLLLNVRPHHKILDMCAAPGSKTTQLIEMLHADMNVPFPEGFVIANDVDNKRCYLLVHQAKRLSSPCIMVVNHDASSIPRLQIDVDGRKEILFYDRILCDVPCSGDGTMRKNIDVWKKWTTLNSLQLHGLQLRIATRGAEQLAEGGRMVYSTCSLNPIEDEAVIASLLEKSEGALELADVSNELPGLKWMPGITQWKVMTKDGQWFTDWDAVPHSRHTQIRPTMFPPKDPEKLQAMHLERCLRILPHHQNTGGFFVAVLVKKSSMPWNKRQPKLQGKSAETRESTQLSPADLTEGKPTDPSKLESPSFTGTGDTEIAHATEDLENNGSKKDGVCGPPPSKKMKLFGFKEDPFVFIPEDDPLFPPIEKFYALDPSFPRMNLLTRTTEGKKRQLYMVSKELRNVLLNNSEKMKVINTGIKVWCRNNSGEEFDCAFRLAQEGIYTLYPFINSRIITVSMEDVKILLTQENPFFRKLSSETYSQAKDLAKGSIVLKYEPDSANPDALQCPIVLCGWRGKASIRTFVPKNERLHYLRMMGLEVLGEKKKEGVILTNESAASTGQPDNDVTEGQRAGEPNSPDAEEANSPDVTAGCDPAGVHPPR

Variants of: B1
Assay: Co-IP (IP: anti-Flag) immunoblot, band quantification
Conditions: with STUB1 (STIP1 homology and U-box containing protein 1), MG132 +, n = 3, parent: 1, read off a plot

response (relative intensity)	Variant
2	chain 2 K692R
0.3	chain 2 K692E
